Measurements: patent publication US20230084099A1 (NATIONAL UNIVERSITY CORPORATION TOKAI NATIONAL HIGHER …, published 2023)
Residue numbers refer to the chain shown, from its start. Each block holds one binder with its values, some of them ahead of it.

Key:
human MEFLIN protein = molecular target: T1, human MEFLIN protein (human, UniProt O14498 19-428, limits assumed); assay: Western blotting on tagged human MEFLIN fragments
T1 construct: In the Western blot the protein and its fragments carried a C-terminal G196 tag and His tag and were expressed in HEK293 cells; also called hMEFLIN; ISLR
T1 sequence (looked up): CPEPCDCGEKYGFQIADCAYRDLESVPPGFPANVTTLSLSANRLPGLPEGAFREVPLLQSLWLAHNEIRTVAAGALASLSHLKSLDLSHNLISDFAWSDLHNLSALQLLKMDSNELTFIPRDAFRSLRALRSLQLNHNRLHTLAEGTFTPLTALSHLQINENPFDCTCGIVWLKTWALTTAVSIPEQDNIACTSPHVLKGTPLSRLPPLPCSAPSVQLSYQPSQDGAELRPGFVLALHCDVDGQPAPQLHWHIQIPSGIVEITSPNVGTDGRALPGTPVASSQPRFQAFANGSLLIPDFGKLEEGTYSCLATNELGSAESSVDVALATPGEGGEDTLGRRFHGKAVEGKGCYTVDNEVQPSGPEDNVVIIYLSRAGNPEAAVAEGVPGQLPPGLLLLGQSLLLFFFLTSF
Method: The human embryonic kidney (HEK293) cell line was allowed to transiently express pRP-CMV vector having an insert of DNA encoding the human MEFLIN protein or a fragment thereof by lipofection, and a cell lysate was prepared. […] SDS-PAGE was performed using the cell lysate, and the electrophoresed protein was transferred to a PVDF membrane. The PVDF membrane was reacted at ordinary temperature for 1 hour using 5% skimmed milk/PBS. The primary antibody used was a culture supernatant of each hybridoma clone diluted 50-fold with PBS. For a positive subject, an anti-G196 antibody was used as a primary antibody. The PVDF membrane was reacted overnight at 4° C. in the presence of the primary antibody. Then, the PVDF membrane was washed with 0.05% Tween/PBS. The secondary antibody used was an anti-rat or anti-mouse antibody-horseradish peroxidase (HRP) conjugate. The secondary antibody was diluted 1000-fold with PBS and reacted with the PVDF membrane at ordinary temperature for 45 minutes. After washing with 0.05% Tween/PBS, the HRP label on the antibody was allowed to emit light using ECL (GE Healthcare Japan Corp.), and an image was captured into a computer using a CCD imager (Las 4000, GE Healthcare Japan Corp.).

[1] = molecular target: T2, human MEFLIN expressed on cells (human, UniProt O14498 19-428); assay: cell-based or functional assay
T2 sequence (looked up): T1 sequence (looked up)

B1: 32-1 antibody (antibody, V domains shown)
VH: VQLQQSGGDLVKPGGSLKLSCAASGFTFSSYGMSWVRQTPDKRLEWVATISSGGSYTYYPDSVKGRFTISRDNAKNTLYLQMSSLKSEDTAMYYCVIDYDVMDYWGQGTSVTVSS
VL: DIVMTQTPSSLAVSAGEKVTMSCKSSQSLLNSRTRKNYLAWYQQKPGQSPKLLIYWASTRESGVPDRFTGSGSGTDFTLTISSVQAEDLAVYYCKQSYNLRTFGGGTKLEIK
notes: Mouse hybridoma monoclonal antibody; used as hybridoma culture supernatant; also called clone 32-1
- binding result (human MEFLIN protein): binds

B2: 34-4 antibody (antibody, V domains shown)
VH: QVQLMESGPGLVQPSQTLSLTCTVSGFSLTSYDMHWVRQPPGKGLEWMGVIWGNGNTHYNSALKSRLSISRDTSKSQVFLKMNSLQTENTAIYFCTGGYFYWGQGVTVTVSS
VL: DVVMTQTPVSLSVAIGHPASISCKSSQSLVGTGGKTYLSWLLQRPGQSPKRLIYLVSKLDSGIPDRFSGSGSETDFTLKISRVEADDLGVYYCLQGTHFPFTFGSGTQLEMK
notes: Rat hybridoma monoclonal antibody; used as hybridoma culture supernatant; also called clone 34-4
- binding result (human MEFLIN protein): binds

B3: 35-9 antibody (antibody, V domains shown)
VH: QVQLTESGPGLVQPSQTLSLTCTVSGFSLSSYGVIWVRQPPGKGLEWMGVIWGNGNTNYNSTLKSRLSISRDTSKSQVFLKMNILQTEDTAMYFCARWESGDYWGQGVTVTVSS
VL: DVVMTQTPVSLSVAVGQPASISCTSSQSLVGSGGKTYLNWFLQRPGQSPKRLISLVSKLDSGIPDRFSGSGSETDFTLKISRVEADDLGVYYCLQGTHFPWTFGGGTKQELK
notes: Rat hybridoma monoclonal antibody; used as hybridoma culture supernatant; also called clone 35-9
- binding result (human MEFLIN protein): binds

B5: ADC27-7 (other, DAR 2.4)
VH: EVQLVESGGSLVQPGGSLKLSCVASGYTFSKYWMDWVRQTPGKSLEWIGEINTDGSKTNYAPSIKDRFTISRDNAKSTLYLQMSNVKSDDTAIYYCTNWEDYWGQGVMVTVSS
VL: DVVMTQTPPSLSVAIGQSVSISCKSSQSLVYSDGKTYLHWLLQSSGRSPKRLIYQVSNLDSGVPDRFSGTGSQKDFTLKISRVEAKDLGVYYCAQTTHFPYTFGAGTKLELK
modifications: MMAE drug-linker on cysteine thiols exposed by DTT reduction (positions not stated)
- EC50 of cell proliferation inhibition (MTT test) [1]: 0.72 nM

Other lines, results leading:

- binding result (human MEFLIN protein): binds
B4: 11-8 antibody (antibody, V domains shown)
VH: VQLQESGPELVKPGASVKISCKASGYSFTDYIILWVKQSHGKSLEWIGNINPYSGNTRYNLKFKGKATLTVDKSSSTAYMQLNSLTSEDSAVYYCARDGDDYAMDYWGQGTSVTVSS
VL: DIVITQTPLSLPVSLGDQASISCRSSQSIVHSNGNTYLEWYLQKPGQSPRLLIYKVSNRFSGVPDRFSGSGSGTDFTLKISRVETEDLGVYYCFQGSHVPWTFGGGTKLEIK
notes: Mouse hybridoma monoclonal antibody; used as hybridoma culture supernatant; also called clone 11-8

- binding result (human MEFLIN protein): binds
B6: 27-7 antibody (antibody, V domains shown)
VH: B5 VH
VL: B5 VL
notes: Rat hybridoma monoclonal antibody; used as hybridoma culture supernatant; also called clone 27-7

- binding result (human MEFLIN protein): binds
B7: 27-8 antibody (antibody, V domains shown)
VH: VQLTESGPGLVKPSQSLSLTCSVTGYTITSGYDWSWIRKFPGNKMEWMGYITYSGSTNYNPSLKSRISITRDTSKNQFFLQLNSVTTEDTATYYCSRDIAAISFAYWGQGTLVTVSS
VL: DVVMTQTPVAQPVTLGDQASISCRSSQSLVHSNGNTYLEWYLQKPGQSPQLLIYKVSNRFSGVPDRFIGSGSGSDFTLKISRVEPEDLGVYYCFQATHVPLTFGSGTKLEIK
notes: Rat hybridoma monoclonal antibody; used as hybridoma culture supernatant; also called clone 27-8

- binding result (human MEFLIN protein): binds
B8: 46-3 antibody (antibody, V domains shown)
VH: VQLKESGPGLVKPSQSLSLTCSVTGYTITSGYDWSWIRKFPGNKMEWMGFITYSGSTHHNPSLKSRISITRDTSRNQFFLQLNSVTTEDSATYYCARDFSGISFAYWGQGTLVSVSS
VL: B7 VL with M4L, A19V, V90I, V99D
notes: Rat hybridoma monoclonal antibody; used as hybridoma culture supernatant; also called clone 46-3
